{"source": "patent US20220193196A1", "about": "“Methods for Modulating T Cell Activation” (THE WALTER AND ELIZA HALL INSTITUTE OF MEDICAL RESEARCH, priority 2019, published 2022)", "key": {"mouse CD8 T cells": {"test_system": "mouse CD8 T cells", "experiment": "Cytokine bead array: IFNγ production by TCR activated CD8 T cells", "type": "cell-based", "settings": "anti-CD3 10 μg/ml", "experimental": "Supernatant was removed from T cell cultures at 48 hours and CBAs performed to measure IFNγ production. Data represent mean for duplicate samples. ND=none detected.\n(§1) The following T cell stimulations were used: TCR was stimulated using 10 μg/ml plate bound anti-CD3 (clone 145-2c11, WEHI antibody facility, Australia) unless a different concentration was specified. Recombinant murine TNF was purchased from R&D Systems (Minneapolis, Minn., USA). Recombinant mIL-2 was purchased from Peprotech. Smac-mimetics were purchased from Sellekchem, MA. The TNFR2 agonist mSTAR was prepared according from HEK293 cells were transiently transfected and cells cultured for 5-7 days, supernatants were purified using anti-Flag affinity chromatography, and the concentrations of the recombinant proteins were determined compared to standard proteins.\nSupernatant from T cell cultures 48 hours after activation as described above were used to measure cytokine production (IL-2, IL-4, IL-6, IFN-γ, TNF, IL-17A and IL-10) using the Th1/Th2/Th17 BD Cytometric Bead Array (CBA) Kit (BD Bioscience). The CBA assay was performed according to manufacturer's instructions.\nThe effect of TNFR2 co-stimulation with TNF on the differentiation of TCR activated CD8 T cells was determined. […] This effect was synergised by the addition of smac-mimetics or IL-2 (FIG. 23)."}, "naïve mouse CD4 T cells": {"test_system": "naïve mouse CD4 T cells", "experiment": "Expansion of anti-CD3 activated naïve CD4 T cells (total cell numbers, CTV dilution by flow cytometry)", "type": "cell-based", "settings": "for CD4 T cell expansion (total live cell number, dilution of cell division dyes): plate bound anti-CD3 10 μg/ml, titrated doses of soluble recombinant TNF, over 4 days", "experimental": "(§2) T cells were isolated from pooled mouse lymph nodes (inguinal, axillary, brachial, superficial cervical and lumbar) and isolated using MACS negative selection kits for CD4+ or CD8+ T cells (Miltenyi Biotec, Auburn, Calif., USA). T cell purity was confirmed by flow cytometry following isolation. For all experiments, T cell purity was between 82.9-98.2%.\n(§3) T cells were cultured in RPMI 1640 medium (Invitrogen) supplemented with non-essential amino acids, 1 mM Sodium-pyruvate, 10 mM HEPES, 100 U/ml Penicillin, 100 μg/ml Streptomycin (Invitrogen), 50 μM 2β-mercaptoethanol, 2 mM L-glutamine (Sigma) and 10% FCS (Sigma). Cells were incubated in a humidified environment at 37° C. in 5% CO2. For division tracking experiments, T cells were labelled with Cell Trace Violet (Invitrogen) according to the manufacturer's instructions. T cells were cultured in flat bottom tissue culture plates.\nas §1\nTriplicate wells were harvested at each time point. To determine absolute cell numbers, the number of live cells per culture was estimated by reference to a known number of Calibrite beads (Becton Dickinson, San Jose, Calif.), added directly to cell culture before collecting. […]\nTo examine the role of TNFα in T cell co-stimulation, naïve CD4 T cells were isolated from C57Bl/6 mice and stimulated with a range of recombinant mouse TNF concentrations in the presence of T cell receptor (TCR) crosslinking via plate bound anti-CD3 stimulation. CD4 T cells were labelled with the cell division tracking dye cell trace violet (CTV) and the response measured daily over 96 hours by quantifying T cell expansion using flow cytometry.\nTo determine if the co-stimulation effect of TNF on T cells could be mimicked using an agonist specific for TNFR2, the response of naïve mouse CD4 T cells activated via TCR in the presence of recombinant mouse TNF, or a TNFR2-specific agonist called mSTAR (Rauert et al., 2010; Chopra et al., 2016) was measured. Naïve CD4 T cells were CTV labelled and the response measured by flow cytometry after stimulation with anti-CD3 in the presence of TNF or mSTAR (FIGS. 16 to 19)."}, "naïve mouse CD8 T cells": {"test_system": "naïve mouse CD8 T cells", "experiment": "Expansion of anti-CD3 activated naïve CD8 T cells (total cell numbers, CTV dilution by flow cytometry)", "type": "cell-based", "settings": "for receptor through which TNF co-stimulates CD8 T cells: CD8 T cells from WT, tnfr1−/− or tnfr2−/− mice, anti-CD3, TNF 5 ng/ml, 4 days", "experimental": "as §2, §3, §1\nTriplicate wells were harvested at each time point. To determine absolute cell numbers, the number of live cells per culture was estimated by reference to a known number of Calibrite beads (Becton Dickinson, San Jose, Calif.), added directly to cell culture before collecting. Dead cells were identified via uptake of propidium iodide (SigmaAldrich) added to culture before flow cytometry. Flow cytometry was performed on a BD FACS Canto II or Fortessa.\nTo determine if TNF co-stimulation was restricted to CD4 T cells, or could act on all effector cells from the T cell lineage, co-stimulation of naïve CD8 T cells by TNFα was measured. Naïve CTV labelled CD8 T cells were cultured in the presence of plate bound anti-CD3 with various concentrations of recombinant mouse TNFα and the response measured by flow cytometry.\nNaïve CD8 T cells were isolated from WT mice and stimulated with combinations of anti-CD3, TNF and SMAC mimetics. The expansion of CD8 T cells was determined by measuring T cell numbers quantified relative to a known number of quantification beads via flow cytometry."}, "[1]": {"test_system": "CD8 T cells deficient for TNFR2", "experiment": "Co-stimulation of anti-CD3 activated CD8 T cells deficient for TNFR2 (dilution of cell tracking dyes)", "type": "cell-based, mouse", "settings": "anti-CD3 10 μg/ml, mSTAR 5 ng/ml, 72 hours", "experimental": "Data are representative examples of triplicate cultures.\n(§4) All experiments were performed using C57BL/6 mice bred and maintained under specific pathogen-free conditions in the WEHI animal facilities (Parkville, Victoria, Australia) and used between 8-20 weeks of age. All experiments were performed under the approval of the WEHI Animal Ethics Committee. Tnfr1−/− and Tnfr2−/− mice were maintained at the WEHI.\nas §2, with “82.9-98.2%. […]” for “82.9-98.2%.”\nas §1, with “Recombinant murine TNF was purchased from R&D Systems (Minneapolis, Minn., USA). Recombinant mIL-2 was purchased from Peprotech. Smac-mimetics were purchased from Sellekchem, MA.” left out"}, "tnfr1−/− CD4 T cells": {"test_system": "tnfr1−/− CD4 T cells", "experiment": "Expansion of anti-CD3 activated CD4 T cells deficient for TNFR1", "type": "cell-based, mouse", "settings": "anti-CD3 10 μg/ml, TNF 5 ng/ml, compared with WT CD4 T cells", "experimental": "as §4\nas §2, with “82.9-98.2%. […]” for “82.9-98.2%.”\nas §1, with “Recombinant murine TNF was purchased from R&D Systems (Minneapolis, Minn., USA). Recombinant mIL-2 was purchased from Peprotech. Smac-mimetics were purchased from Sellekchem, MA.” left out, “proteins. […]” for “proteins.”\n(§5) To determine the role of TNF receptors 1 (TNFR1) and 2 (TNFR2) as regulators of TNFα driven T cell co-stimulation, the response of T cells deficient for either TNFR1 or TNFR2 was measured. […]"}, "tnfr2−/− CD4 T cells": {"test_system": "tnfr2−/− CD4 T cells", "experiment": "Expansion of anti-CD3 activated CD4 T cells deficient for TNFR2", "type": "cell-based, mouse", "settings": "anti-CD3 10 μg/ml, TNF 5 ng/ml", "experimental": "as §4\nas §2, with “82.9-98.2%. […]” for “82.9-98.2%.”\nas §1, with “Recombinant murine TNF was purchased from R&D Systems (Minneapolis, Minn., USA). Recombinant mIL-2 was purchased from Peprotech. Smac-mimetics were purchased from Sellekchem, MA.” left out, “proteins. […]” for “proteins.”\nas §5"}, "[2]": {"settings": "anti-CD3 10 μg/ml, TNF 5 ng/ml or mSTAR 5 ng/ml, 72 hours"}}, "note": "Entries after “also recorded” stand apart in the source; their conditions may differ.", "data": [{"molecule": "IL-2: Recombinant mIL-2 purchased from Peprotech (protein, UniProt P04351 21-169, looked up) Interleukin-2: APTSSSTSSSTAEAQQQQQQQQQQQQHLEQLLMDLQELLSRMENYRNLKLPRMLTFKFYLPKQATELKDLQCLEDELGPLRHVLDLTQSKSFQLEDAENFISNIRVTVVKLKGSDNTFECQFDDESATVVDFLRRWIAFCQSIISTSPQ", "values": [{"measurement": "IFNγ production, effect of addition to TNF co-stimulation", "setting": "mouse CD8 T cells; TNF 5 ng/ml with Smac-mimetic or IL-2, supernatant at 48 hours", "value": "synergised"}]}, {"molecule": "mSTAR: TNFR2-specific agonist TNF mutein (Rauert et al., 2010; Chopra et al., 2016), SEQ ID NO:3, produced in HEK293 cells (protein) ACGCAAAPDIKDLLSRLEELEGLVSSLREQGGGGSLRSSSQNSSDKPVAHVVANHQVEEQLEWLSQRANALLANGMDLKDNQLVVPADGLYLVYSQVLFKGQGCPDYVLLTHTVSRFAISYQEKVNLLSAVKSPCPKDTPEGAELKPWYEPIYLGGVFQLEKGDQLSAEVNLPKYLNFRESGQVYFGVIALGGGGSLRSSSQNSSDKPVAHVVANHQVEEQLEWLSQRANALLANGMDLKDNQLVVPADGLYLVYSQVLFKGQGCPDYVLLTHTVSRFAISYQEKVNLLSAVKSPCPKDTPEGAELKPWYEPIYLGGVFQLEKGDQLSAEVNLPKYLNFRESGQVYFGVIALGGGGSLRSSSQNSSDKPVAHVVANHQVEEQLEWLSQRANALLANGMDLKDNQLVVPADGLYLVYSQVLFKGQGCPDYVLLTHTVSRFAISYQEKVNLLSAVKSPCPKDTPEGAELKPWYEPIYLGGVFQLEKGDQLSAEVNLPKYLNFRESGQVYFGVIAL", "values": [{"measurement": "CD4 T cell response (dilution of cell tracking dyes, total cell numbers), TNF compared with mSTAR", "setting": "naïve mouse CD4 T cells; [2]", "value": "can mimic TNF mediated CD4 T cell activation"}, {"measurement": "CD8 T cell response (dilution of cell division dyes, total cell numbers), mSTAR compared with TNF", "setting": "naïve mouse CD8 T cells; [2]", "value": "can mimic TNF CD8 T cell activation"}, {"measurement": "T cell co-stimulation in CD8 T cells deficient for TNFR2", "setting": "[1]", "value": "did not induce any T cell co-stimulation; also recorded: does not activate CD8 T cells in the absence of TNFR2"}]}, {"molecule": "TNF: Recombinant murine TNF purchased from R&D Systems; wild type, not TNFR2-specific (protein) LRSSSQNSSDKPVAHVVANHQVEEQLEWLSQRANALLANGMDLKDNQLVVPADGLYLVYSQVLFKGQGCPDYVLLTHTVSRFAISYQEKVNLLSAVKSPCPKDTPEGAELKPWYEPIYLGGVFQLEKGDQLSAEVNLPKYLDFAESGQVYFGVIAL", "values": [{"measurement": "receptor through which TNF co-stimulates CD4 T cells", "setting": "naïve mouse CD4 T cells; CD4 T cells from WT, tnfr1−/− or tnfr2−/− mice, anti-CD3, TNF 5 ng/ml, 4 days", "value": "act exclusively through TNFR2; also recorded: co-stimulates CD4 T cells through TNFR2"}, {"measurement": "CD4 T cell expansion (total live cell number, dilution of cell division dyes)", "setting": "naïve mouse CD4 T cells", "value": "promotes CD4 T cell division and expansion"}, {"measurement": "CD4 T cell expansion (total live cell number, dilution of cell division dyes)", "setting": "naïve mouse CD4 T cells; listed as TNFα", "value": "significantly enhanced CD4 T cell expansion in a dose dependent manner"}, {"measurement": "receptor through which TNF co-stimulates CD8 T cells", "setting": "naïve mouse CD8 T cells", "value": "co-stimulates CD8 T cells through TNFR2"}, {"measurement": "receptor through which TNF co-stimulates CD8 T cells", "setting": "naïve mouse CD8 T cells; listed as TNFα", "value": "mediated exclusively by TNFR2"}, {"measurement": "CD8 T cell expansion (total CD8 T cell numbers, dilution of division tracking dyes)", "setting": "naïve mouse CD8 T cells; plate bound anti-CD3 10 μg/ml, titrated doses of soluble recombinant TNF, over 4 days", "value": "potent co-stimulator of CD8 T cells; also recorded: potent co-stimulation factor to promote CD8 T cell division and expansion"}, {"measurement": "response of tnfr1−/− CD4 T cells to TNF co-stimulation", "setting": "tnfr1−/− CD4 T cells", "value": "indistinguishable from WT CD4 T cells"}, {"measurement": "co-stimulation of CD4 T cells in the absence of TNFR2", "setting": "tnfr2−/− CD4 T cells", "value": "no co-stimulation"}, {"measurement": "IFNγ production", "setting": "mouse CD8 T cells; TNF 5 ng/ml, supernatant at 48 hours", "value": "significantly increased; also recorded: increases IFNγ production"}]}]}
